{
  "source": "patent US20210371503A1",
  "binders": {"B1": {"name": "MnC4t1p1_A10 (antibody, V domains shown)", "VH": "QLQVQESGPGLVKPSETLSLTCTVSGASISSNHYFWGWIRQPPGKGLAWIGSMHYSGSTYYNPSLKSRVTISVDTSKNQLSLKLSSVTAADTAVYYCARGVNYYDRNGYYRNDGFDIRGQGTMVTVSS", "VL": "DIQMTQSPSSLSASVGDRVTITCRASQGIRNDLGWYEQKPGKAPKRLIYAASSLESGVPSRFSGSGSGTEFTLTISSLQPEDFATYYCLQHNTYPFTFGPGTRVDIK"}, "B2": {"name": "MnC4t2p1_D10 (antibody, V domains shown)", "VH": "QLQVQESGPGLVKPSETLSLTCTVSGASISSNHYFWGWIRQPPGKGLAWIGSMHYSGSTYYNPSLKSRVTISVDTSKNQLSLKLSSVTAADTAVYYCARGVNYYDRNGYYRNDGFDIRGQGTMVTVSS", "VL": "DIQMTQSPSSLSASVGDRVTITCRASQGIRNDLGWYEQKPGKAPKRLIYAASSLESGVPSRFSGSGSGTEFTLTISSLQPEDFATYYCLQHNTYPFTFGPGTRVDIK"}, "B3": {"name": "MnC4t2p1_F5 (antibody, V domains shown)", "VH": "QLQVQESGPGLVKPSETLSLTCTVSGASISSNHYFWGWIRQPPGKGLAWIGSMHYSGSTYYNPSLKSRVTISVDTSKNQLSLKLSSVTAADTAVYYCARGVNYYDRNGYYRNDGFDIRGQGTMVTVSS", "VL": "DIQMTQSPSSLSASVGDRVTITCRASQGIRNDLGWYEQKPGKAPKRLIYAASSLESGVPSRFSGSGSGTEFTLTISSLQPEDFATYYCLQHNTYPFTFGPGTRVDIK"}},
  "target": "SARS-CoV-2 (spike protein) antigen of the Euroimmun IgG detection kit",
  "assay": "Euroimmun IgG ELISA kit, antibody at 50 µg/ml [cont'd]",
  "data": [
    {"binder": "B1", "values": [
      {"measurement": "IgG detection test", "result": 4.87}
    ]},
    {"binder": "B2", "values": [
      {"measurement": "IgG detection test", "result": 5.3}
    ]},
    {"binder": "B3", "values": [
      {"measurement": "IgG detection test", "result": 5.19}
    ]}
  ]
}
